Residues, ends and D or L forms follow the SMILES beside them.
Tests used:
Assay type in all cases: cell-based
NPSR receptor [1] = target: T1, NPSR receptor (Homo sapiens, UniProt Q6W5P4); test: CRE-luciferase reporter assay in HEK293T cells over-expressing NPSR (cAMP signaling); settings: for EC50 / Agonist effect (CRE) EC50: HEK293T co-transfected with CRE-luciferase reporter (50 ng), pSV-β-Gal (5 ng), NPSR plasmid (50 ng), after 36 h, 18 h with peptide in serum-free media, normalized to β-galactosidase, at least three experiments in triplicates, apparent EC50, Graphpad Prism 5.0; for EC50: read-out: Agonist effect (CRE) EC50; for bioactivity in the CRE-luciferase assay (in words): 6th position substitution mutants, HEK293T with NPSR, Fig. 3A
T1 construct: Full length cDNA for the NPSR receptor was purchased from OriGene Technologies; host or cells: HEK293T
T1 sequence (Q6W5P4 1-371): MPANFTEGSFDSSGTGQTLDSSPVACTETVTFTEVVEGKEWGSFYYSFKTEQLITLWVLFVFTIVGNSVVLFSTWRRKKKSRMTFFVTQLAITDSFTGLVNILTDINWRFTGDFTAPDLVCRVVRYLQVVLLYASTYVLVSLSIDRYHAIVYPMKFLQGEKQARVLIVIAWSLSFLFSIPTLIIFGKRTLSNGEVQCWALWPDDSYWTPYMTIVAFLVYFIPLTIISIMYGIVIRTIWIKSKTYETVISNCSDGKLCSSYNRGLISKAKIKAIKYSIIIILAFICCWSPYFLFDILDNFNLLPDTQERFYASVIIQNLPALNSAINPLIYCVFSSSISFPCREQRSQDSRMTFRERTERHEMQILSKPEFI
Protocol: (§1) HEK293T cells seeded in 24-well plates were co-transfected with different luciferase reporters (50 ng), the pSV-β-Gal plasmid (5 ng), and the NPSR receptor plasmid (50 ng). After 36 h, cells were cultured in serum-free media for another 18 h with increasing doses of the various NPS peptides. Luciferase activities were determined using the luciferase assay kit (Promega) and normalized using β-galactosidase activities. All experiments were performed at least three times in triplicates. Data (EC50) were analyzed using Graphpad Prism 5.0.
(§2) Figure 2 Sequence comparison and lower NPSR receptor signaling ability of the L^6-NPS variant. (A) Alignment of NPS among diverse vertebrate species. Sequences were aligned by the ClustalW program. Stars indicate identical amino acids and double dots (:) indicate conserved amino acids. The predicted convertase cleavage sites (KR) were underlined and the 6th amino acid “V” or “L” in the mature peptide region are shown in bold. (B) Comparison of NPS and L^6-NPS signaling based on the CRE-luciferase assay. (C) Comparison of NPS and L^6-NPS signaling based on the NFAT luciferase assay. HEK293T cells seeded in 24-well plates were co-transfected with different luciferase reporters (50 ng), the pSV-β-Gal plasmid (5 ng), and the NPSR receptor plasmid (50 ng). After 36 h, cells were cultured in serum-free media for another 18 h with increasing doses of the various NPS peptides. EC50 values were analyzed using Graphpad Prism 5.0.
(§3) To compare the bioactivity of wide type NPS (NPS) and the SNP variant (L^6-NPS), we monitored their receptor-activation activities in vitro using HEK293T cells over-expressing NPSR. Because NPS activates NPSR by increasing cAMP production and intracellular Ca^2+ signaling, [10], we used CRE- and NFAT- response elements to measure cAMP and intracellular Ca2+ signaling respectively, [36]. As expected, treatment with wide-type NPS led to dose-dependent stimulation of both CRE- and NFAT- luciferase activities (Fig. 2B and C). We also performed the relaxin-LGR7 ligand-receptor pair as a positive control for the CRE-luciferase assay. Also, gastrin-CCKB ligand-receptor pair was used as a positive control for the SRE-luciferase assay. Cells transfected with the empty vector were also treated with NPS to serve as a negative control (Fig. S4).

NPSR receptor [2] = target: T1, NPSR receptor; test: NFAT-luciferase reporter assay in HEK293T cells over-expressing NPSR (intracellular Ca2+ signaling); settings: HEK293T co-transfected with NFAT-luciferase reporter (50 ng), pSV-β-Gal (5 ng), NPSR plasmid (50 ng), after 36 h, 18 h with peptide in serum-free media, normalized to β-galactosidase, at least three experiments in triplicates, Graphpad Prism 5.0; for EC50: read-out: Agonist effect (NFAT) EC50
Protocol: as §1, §2, §3

LGR7 = target: T2, LGR7 (Homo sapiens, UniProt Q9HBX9); test: CRE-luciferase assay, relaxin-LGR7 ligand-receptor pair (positive control); settings: Fig. S4
T2 construct: expressed in transfected cells; host or cells: HEK293T (inferred from the general luciferase protocol)
T2 sequence (Q9HBX9 1-757): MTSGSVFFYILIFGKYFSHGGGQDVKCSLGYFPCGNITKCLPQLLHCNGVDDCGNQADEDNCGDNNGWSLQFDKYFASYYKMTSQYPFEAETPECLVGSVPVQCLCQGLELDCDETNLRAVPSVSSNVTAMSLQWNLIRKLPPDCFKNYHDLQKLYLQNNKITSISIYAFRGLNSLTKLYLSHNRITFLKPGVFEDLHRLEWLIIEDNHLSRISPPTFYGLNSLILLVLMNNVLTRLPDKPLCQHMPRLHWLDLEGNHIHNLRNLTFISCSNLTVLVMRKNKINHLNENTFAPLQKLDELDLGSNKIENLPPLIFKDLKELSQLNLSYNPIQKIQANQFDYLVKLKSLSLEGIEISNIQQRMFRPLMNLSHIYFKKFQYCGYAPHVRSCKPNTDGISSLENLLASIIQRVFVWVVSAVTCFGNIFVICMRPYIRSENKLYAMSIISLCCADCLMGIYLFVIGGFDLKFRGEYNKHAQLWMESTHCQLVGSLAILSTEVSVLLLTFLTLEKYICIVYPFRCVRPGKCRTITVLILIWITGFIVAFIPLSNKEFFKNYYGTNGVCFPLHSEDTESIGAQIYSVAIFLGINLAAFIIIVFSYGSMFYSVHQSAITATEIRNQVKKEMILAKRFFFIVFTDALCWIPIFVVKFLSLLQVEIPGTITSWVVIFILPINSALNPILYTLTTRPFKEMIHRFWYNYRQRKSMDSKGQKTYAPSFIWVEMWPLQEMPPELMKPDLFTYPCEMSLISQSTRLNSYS
Description: as §3
Supplementary file pone.0083009.s004.pdf: Figure S4 Positive control and negative control for the CRE- and SRE- luciferase assay. […] (PDF) Click here for additional data file.

Compound	EC50 (NPSR receptor [1]) [nM]	EC50 (NPSR receptor [2]) [nM]	bioactivity in the CRE-luciferase assay (in words) (NPSR receptor [1])	Agonist effect (CRE) EC50 (NPSR receptor [1])	Agonist effect (NFAT) EC50 (NPSR receptor [2])	stimulation of CRE-luciferase via LGR7 (LGR7)
CSCC[C@H](NC(=O)CNC(=O)[C@@H](NC(=O)CNC(=O)[C@H](C)NC(=O)CNC(=O)[C@H](CC(N)=O)NC(=O)[C@H](CCCNC(=N)N)NC(=O)[C@H](Cc1ccccc1)NC(=O)[C@@H](N)CO)[C@@H](C)O)C(=O)N[C@@H](CCCCN)C(=O)N[C@@H](CCCCN)C(=O)N[C@H](C(=O)N[C@@H](CO)C(=O)N[C@@H](Cc1ccccc1)C(=O)N[C@@H](CCC(N)=O)C(=O)N[C@@H](CCCNC(=N)N)C(=O)N[C@@H](C)C(=O)N[C@@H](CCCCN)C(=O)N[C@@H](CO)C(=O)O)[C@@H](C)O [A^6-NPS] (H-SFRNGAGTGMKKTSFQRAKS-OH)	534	958	–	–	–	–
CC[C@H](C)[C@H](NC(=O)CNC(=O)[C@H](CC(N)=O)NC(=O)[C@H](CCCNC(=N)N)NC(=O)[C@H](Cc1ccccc1)NC(=O)[C@@H](N)CO)C(=O)NCC(=O)N[C@H](C(=O)NCC(=O)N[C@@H](CCSC)C(=O)N[C@@H](CCCCN)C(=O)N[C@@H](CCCCN)C(=O)N[C@H](C(=O)N[C@@H](CO)C(=O)N[C@@H](Cc1ccccc1)C(=O)N[C@@H](CCC(N)=O)C(=O)N[C@@H](CCCNC(=N)N)C(=O)N[C@@H](C)C(=O)N[C@@H](CCCCN)C(=O)N[C@@H](CO)C(=O)O)[C@@H](C)O)[C@@H](C)O [I^6-NPS] (H-SFRNGIGTGMKKTSFQRAKS-OH)	174	280	–	–	–	–
CSCC[C@H](NC(=O)CNC(=O)[C@@H](NC(=O)CNC(=O)[C@H](CC(C)C)NC(=O)CNC(=O)[C@H](CC(N)=O)NC(=O)[C@H](CCCNC(=N)N)NC(=O)[C@H](Cc1ccccc1)NC(=O)[C@@H](N)CO)[C@@H](C)O)C(=O)N[C@@H](CCCCN)C(=O)N[C@@H](CCCCN)C(=O)N[C@H](C(=O)N[C@@H](CO)C(=O)N[C@@H](Cc1ccccc1)C(=O)N[C@@H](CCC(N)=O)C(=O)N[C@@H](CCCNC(=N)N)C(=O)N[C@@H](C)C(=O)N[C@@H](CCCCN)C(=O)N[C@@H](CO)C(=O)O)[C@@H](C)O [L^6-NPS] (H-SFRNGLGTGMKKTSFQRAKS-OH)	586	975	–	–	–	–
CSCC[C@H](NC(=O)CNC(=O)[C@@H](NC(=O)CNC(=O)[C@@H](NC(=O)CNC(=O)[C@H](CC(N)=O)NC(=O)[C@H](CCCNC(=N)N)NC(=O)[C@H](Cc1ccccc1)NC(=O)[C@@H](N)CO)C(C)C)[C@@H](C)O)C(=O)N[C@@H](CCCCN)C(=O)N[C@@H](CCCCN)C(=O)N[C@H](C(=O)N[C@@H](CO)C(=O)N[C@@H](Cc1ccccc1)C(=O)N[C@@H](CCC(N)=O)C(=O)N[C@@H](CCCNC(=N)N)C(=O)N[C@@H](C)C(=O)N[C@@H](CCCCN)C(=O)N[C@@H](CO)C(=O)O)[C@@H](C)O [NPS, Neuropeptide S, reference compound] (H-SFRNGVGTGMKKTSFQRAKS-OH)	36.9	44.6	–	–	–	–
D^6-NPS: NPS mutant with aspartic acid at the 6th position (SFRNGDGTGMKKTSFQRAKS; Neuropeptide S; UniProt P0C0P6 70-89, looked up, variant V6D)	–	–	complete loss of bioactivity	inactive	inactive	–
F^6-NPS: NPS mutant with phenylalanine at the 6th position (SFRNGFGTGMKKTSFQRAKS; Neuropeptide S; UniProt P0C0P6 70-89, looked up, variant V6F)	–	–	complete loss of bioactivity	inactive	inactive	–
K^6-NPS: NPS mutant with lysine at the 6th position (SFRNGKGTGMKKTSFQRAKS; Neuropeptide S; UniProt P0C0P6 70-89, looked up, variant V6K)	–	–	complete loss of bioactivity	inactive	inactive	–
N^6-NPS: NPS mutant with asparagine at the 6th position (SFRNGNGTGMKKTSFQRAKS; Neuropeptide S; UniProt P0C0P6 70-89, looked up, variant V6N)	–	–	complete loss of bioactivity	inactive	inactive	–
relaxin	–	–	–	–	–	normal stimulation
